Oligonucleotides are written 5' to 3', each unit as a sugar letter and its base; * is a phosphorothioate linkage, no mark a phosphodiester; rarer units and linkages stand in square brackets, end groups in braces. Plain capitals give the bases only. r = 2'-OH (RNA); f = 2'-fluoro
T1: chymase (recombinant) (UniProt P23946 P23946:22-247)
T1 sequence: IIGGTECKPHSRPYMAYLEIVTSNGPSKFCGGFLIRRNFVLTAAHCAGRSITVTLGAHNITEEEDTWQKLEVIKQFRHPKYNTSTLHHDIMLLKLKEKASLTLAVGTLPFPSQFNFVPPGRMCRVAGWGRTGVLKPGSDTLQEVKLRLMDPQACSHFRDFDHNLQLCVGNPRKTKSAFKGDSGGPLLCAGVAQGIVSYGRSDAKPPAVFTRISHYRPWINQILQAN

T2: chymase (recombinant, manufactured by SIGMA) (Homo sapiens, UniProt P23946)
T2 construct: purchased SIGMA; host or cells: yeast
T2 sequence (P23946 22-247): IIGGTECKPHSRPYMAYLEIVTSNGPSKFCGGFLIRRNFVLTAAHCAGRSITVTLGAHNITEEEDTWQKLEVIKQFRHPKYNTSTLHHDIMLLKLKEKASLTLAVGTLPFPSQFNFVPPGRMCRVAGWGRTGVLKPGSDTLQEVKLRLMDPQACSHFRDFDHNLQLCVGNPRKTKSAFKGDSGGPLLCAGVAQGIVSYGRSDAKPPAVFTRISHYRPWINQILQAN

T3: chymase (Homo sapiens, UniProt P23946)
T3 sequence (P23946 22-247): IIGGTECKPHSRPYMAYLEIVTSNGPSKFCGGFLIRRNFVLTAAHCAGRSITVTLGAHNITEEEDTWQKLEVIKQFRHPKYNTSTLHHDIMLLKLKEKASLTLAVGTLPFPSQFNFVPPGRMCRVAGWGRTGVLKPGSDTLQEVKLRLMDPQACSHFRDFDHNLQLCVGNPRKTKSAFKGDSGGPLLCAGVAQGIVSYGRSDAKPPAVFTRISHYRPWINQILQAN


Tests used:
chymase (recombinant) [1] = molecular target: T1, chymase (recombinant); experiment: inhibition; SPR ++ (Table 2); conditions: tags: SIGMA, expressed in yeast
Protocol: (§1) Here, Suc is a protecting succinyl group, and MCA is a 4-methylcoumaryl-7-amide group; upon cleavage of the C-terminal side of phenylalanine, AMC (7-amino-4-methyl-coumarine) is released. By detecting the fluorescence of this AMC, the enzyme activity of chymase can be determined. The assay was performed using a 96-well plate (F16 Black Maxisorp Fluoronunc, manufactured by Nunc), with a reaction mixture volume of 100 μL, in solution C as a buffer solution. First, each nucleic acid was serially diluted to 0.0027-2 μM concentrations in solution C to obtain 50 μL solutions. After 10 μL of the 1 mM substrate prepared in solution C was added thereto, the plate was set to the microplate reader SpectraMax190 (manufactured by Molecular Devices Corporation), and incubated at 37° C. for 5 minutes. Separately, 0.05 μg (or 0.005 μg) of chymase (recombinant, manufactured by SIGMA) was diluted in solution C to obtain a 40 μL chymase solution, and incubated at 37° C. for 5 minutes. The chymase solution was added to the mixture of the nucleic acid and substrate to initiate an enzyme reaction. The final chymase concentration in the reaction mixture was 16.7 nM (or 1.67 nM), the final substrate concentration being 100 μM. The plate containing the reaction mixture was set to the microplate reader SpectraMax190 (manufactured by Molecular Devices Corporation), and examined for time-dependent changes in the fluorescence intensity at 37° C. for 5 minutes (or 30 minutes) (excitation wavelength 380 nm, detection wavelength 460 nm). A linear approximation of the increase in the fluorescence of the AMC released from the substrate by chymase activity was generated, and its slope was taken as the initial velocity […]. For control, samples were treated and analyzed in the same manner in two cases: use of a 30N or 40N (a nucleotide of 30 or 40 consecutive bases represented by N; N is A, G, C or T) nucleic acid pool (negative control), and use of chymostatin, a known chymotrypsin-like serine protease inhibitor (positive control). Taking the initial reaction velocity without the nucleic acid and inhibitor (V_0) as a 100% enzyme activity, the inhibitory rate of each test substance was calculated using the following equation: […]

[2] = molecular target: T2, chymase (recombinant, manufactured by SIGMA); experiment: Chymase inhibitory activity using synthetic substrate Suc-Ala-Ala-Pro-Phe-MCA; format: biochemical; conditions: Table 3; substrate 100 μM, solution C, 37° C.; mean value for 2 to 3 measurements
In short: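 Human recombinant chymase (16.7 nM or 1.67 nM final) preincubated 5 min at 37° C., then added to nucleic acid (0.0027–2 μM serial dilutions) and 100 μM substrate in solution C. AMC fluorescence (ex 380/em 460 nm) followed 5 or 30 min at 37° C.; slope gives initial velocity, inhibition versus no-inhibitor control yields IC50.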

chymase [3] = molecular target: T3, chymase; experiment: Surface plasmon resonance (Biacore T100), aptamer immobilized on SA chip, chymase injected as analyte; format: binding; parameters: key: ++: a sequence that binds to chymase significantly more strongly than the negative control 30N; conditions: Table 2; same manner as Example 1, running buffer solution C; compared with 30N
Protocol: (§2) Binding strength is measured using Biacore T100 (manufactured by GE Healthcare). In a method of measurement, the aptamer is first immobilized onto a sensor chip, the amount immobilized being about 1000 RU. 20 μL of a chymase solution for analyte, prepared at 0.2 μM, is injected, and the binding of chymase to the aptamer is detected. An RNA comprising a random nucleotide sequence of 30 or 40 nucleotides is used as a negative control.
(§3) The binding activities against chymase of the nucleic acids shown by SEQ ID NO: 4-20 and 22-34 were determined by the surface plasmon resonance method using Biacore T100 (manufactured by GE Healthcare). The sensor chip used was the SA chip, which had streptavidin immobilized thereon. Bound thereto was about 1500 RU of a 16-nucleotide Poly dT with biotin bound to the 5′ end thereof. […] 20 μL of chymase for analyte, prepared at 0.2 μM, was injected. Solution A was used as a running buffer.
(§4) The binding activities against chymase of the nucleic acids shown by SEQ ID NO: 38-48 were evaluated by the surface plasmon resonance method. In the evaluations for SEQ ID NO: 38-48, measurements were taken in the same manner as Example 1. Solution C was used as a running buffer.

chymase (recombinant) [4] = molecular target: T1, chymase (recombinant); experiment: inhibition; SPR ++; conditions: tags: SIGMA, expressed in yeast
Protocol: as §1
The chymase inhibitory activity was measured in the same manner as in Example 3.

chymase [5] = molecular target: T3, chymase; experiment: Surface plasmon resonance (Biacore T100), aptamer immobilized on SA chip, chymase injected as analyte; format: binding; conditions: Table 1; about 1000 RU nucleic acid immobilized, chymase 0.2 μM analyte, running buffer solution A; compared with 40N
Protocol: as §2, §3, §4

Row | Molecule | IC50 (chymase (recombinant) [1]) | IC50 (chymase (recombinant) [4]) | also measured
1 | SEQ 47 (ssRNA, 2'-F pyrimidines) RNA: GGGAGCAGGAGAGAGGUCAGAUGGUGAUAGAUAGAGUUAAAAUCGCUGAAUGGCCUAUGCGUGCUAGUGUGA | 58 nM |  | 
2 | 47 (nucleic acid, aptamer; 2'-fluoro at CU, RNA at AG, backbone not given here) GGGAGCAGGAGAGAGGUCAGAUGGUGAUAGAUAGAGUUAAAAUCGCUGAAUGGCCUAUGCGUGCUAGUGUGA |  |  | IC50 [2]: 58 ± 12 nM; Binding activity as determined using Biacore (chymase [3]): ++
3 | GGGUUAGAUAGAUUUAAAAACCC (ssRNA, G(M)G(M)G(M)U(F)U(F)AG(M)A(M)U(F)A(M)GAU(F)U(F)U(F)A(M)A(M)A(M)A(M)A(M)C(F)C(F)C(F) (M=2'-OMe, F=2'-F)) [61(1)] |  | 78 nM | 
4 | SEQ 44 (ssRNA, 2'-F pyrimidines) RNA: GGGAGCAGGAGAGAGGUCAGAUGUUAGACCAAAGCAUAGGAGAUAGAGUUAAACCUAUGCGUGCUAGUGUGA | 49 nM |  | 
5 | SEQ 48 (ssRNA, 2'-F pyrimidines) RNA: GGGAGCAGGAGAGAGGUCAGAUGUGAAGAUAGAGAUAAAUCACAUACAGUCGGCCUAUGCGUGCUAGUGUGA | 95 nM |  | 
6 | 48 (nucleic acid, aptamer; 2'-fluoro at CU, RNA at AG, backbone not given here) GGGAGCAGGAGAGAGGUCAGAUGUGAAGAUAGAGAUAAAUCACAUACAGUCGGCCUAUGCGUGCUAGUGUGA |  |  | IC50 [2]: 95 ± 18 nM; Binding activity as determined using Biacore (chymase [3]): ++
7 | GGGUUAGAUAGAGUUAAAAACCC (ssRNA, idT-G(M)G(M)G(M)U(F)U(F)AG(M)AU(F)A(M)GAG(M)U(F)U(F)A(M)A(M)A(M)A(M)A(M)C(F)C(F)C(F)-idT (M=2'-OMe, F=2'-F)) [56(31)] |  | 23 nM | 
8 | SEQ 38 (ssRNA, 2'-F pyrimidines) RNA: GGGAGCAGGAGAGAGGUCAGAUGGAUAGAGUUAAGAUCUGGCUGGCGCAUUAGCCUAUGCGUGCUAGUGUGA | 50 nM |  | 
9 | 38 (nucleic acid, aptamer; 2'-fluoro at CU, RNA at AG, backbone not given here) GGGAGCAGGAGAGAGGUCAGAUGGAUAGAGUUAAGAUCUGGCUGGCGCAUUAGCCUAUGCGUGCUAGUGUGA |  |  | IC50 [2]: 50 ± 12 nM; Binding activity as determined using Biacore (chymase [3]): ++
10 | SEQ 41 (ssRNA, 2'-F pyrimidines) RNA: GGGAGCAGGAGAGAGGUCAGAUGGUGAGAUAGAGUUAAACACCACAAUAGUAGCCUAUGCGUGCUAGUGUGA | 60 nM |  | 
11 | 41 (nucleic acid, aptamer; 2'-fluoro at CU, RNA at AG, backbone not given here) GGGAGCAGGAGAGAGGUCAGAUGGUGAGAUAGAGUUAAACACCACAAUAGUAGCCUAUGCGUGCUAGUGUGA |  |  | IC50 [2]: 60 ± 17 nM; Binding activity as determined using Biacore (chymase [3]): ++
12 | GGGUUAGAUAGAGTUAAAAACCC (mixed, idT-G(M)G(M)G(M)U(F)U(F)AG(M)A(M)U(F)A(M)GAG(M)tU(F)A(M)A(M)A(M)A(M)A(M)C(F)C(F)C(F)-idT (lower case DNA)) [SEQ 71] |  | 28 nM | 
13 | SEQ 45 (ssRNA, 2'-F pyrimidines) RNA: GGGAGCAGGAGAGAGGUCAGAUGGACCACCGAUGGGCAAGAUAGAGUUAAAUGCCUAUGCGUGCUAGUGUGA | 74 nM |  | 
14 | SEQ 42 (ssRNA, 2'-F pyrimidines) RNA: GGGAGCAGGAGAGAGGUCAGAUGCGUGAUCGUGCAAGGCGGAUAGAGUUAAGGCCUAUGCGUGCUAGUGUGA | 124 nM |  | 
15 | GGGTTAGAUAGAGUUAAAAACCC (mixed, idT-G(M)G(M)G(M)ttAG(M)A(M)U(F)A(M)GAG(M)U(F)U(F)A(M)A(M)A(M)A(M)A(M)C(F)C(F)C(F)-idT (lower case DNA)) [SEQ 70] |  | 27 nM | 
16 | GGGTTAGAUAGAGTUAAAAACCC (mixed, idT-G(M)G(M)G(M)ttAG(M)A(M)U(F)A(M)GAG(M)tU(F)A(M)A(M)A(M)A(M)A(M)ccc-idT (lower case DNA)) [SEQ 72] |  | 20 nM | 
17 | SEQ 43 (ssRNA, 2'-F pyrimidines) RNA: GGGAGCAGGAGAGAGGUCAGAUGAUGCCAAGAUAGAUUUAAAUGGCGUUUGGGCCUAUGCGUGCUAGUGUGA | 81 nM |  | 
18 | SEQ 40 (ssRNA, 2'-F pyrimidines) RNA: GGGAGCAGGAGAGAGGUCAGAUGAACGGAUAGAGCUAAGAGUUCGUCAGAGGGGCCUAUGCGUGCUAGUGUGA | 140 nM |  | 
19 | 40 (nucleic acid, 2'-fluoro at CU, RNA at AG, backbone not given here) GGGAGCAGGAGAGAGGUCAGAUGAACGGAUAGAGCUAAGAGUUCGUCAGAGGGGCCUAUGCGUGCUAGUGUGA |  |  | IC50 [2]: 140 ± 85 nM; Binding activity as determined using Biacore (chymase [3]): ++
20 | GGGUUAGAUAGAGUUAAAAACCC (ssRNA, idT-G(M)G(M)G(M)U(F)U(F)AGAU(F)A(M)GAG(M)U(F)U(F)A(M)A(M)A(M)A(M)A(M)C(F)C(F)C(F)-idT (M=2'-OMe, F=2'-F)) [56(32)] |  | 17 nM | 
21 | SEQ 46 (ssRNA, 2'-F pyrimidines) RNA: GGGAGCAGGAGAGAGGUCAGAUGGGACAGAUAGAGUUAAAGUCCGUUACGUGGCCUAUGCGUGCUAGUGUGA | 38 nM |  | 
22 | 46 (nucleic acid, aptamer; 2'-fluoro at CU, RNA at AG, backbone not given here) GGGAGCAGGAGAGAGGUCAGAUGGGACAGAUAGAGUUAAAGUCCGUUACGUGGCCUAUGCGUGCUAGUGUGA |  |  | IC50 [2]: 38 ± 4 nM; Binding activity as determined using Biacore (chymase [3]): ++
23 | GGGACGGUAGGAAUUCCGCAACCAUCCCGUAACUAUGGUUAGAUAGAGUUAAAAACCAUAGAAGAGCGGCCGC (nucleic acid, chemistry not given here) GGGACGGUAGGAAUUCCGCAACCAUCCCGUAACUAUGGUUAGAUAGAGUUAAAAACCAUAGAAGAGCGGCCGC |  |  | Binding activity as determined using Biacore (chymase [5]): higher binding activity than 40N
24 | GGGACGGUAGGAAUUCGUCCAUUCUACAGAUAGAGAUAAAGUAGAAUUUAACAAAACAUAGAAGAGCGGCCGC (nucleic acid) rGrGrGrAfCrGrGfUrArGrGrArAfUfUfCrGfUfCfCrAfUfUfCfUrAfCrArGrAfUrArGrArGrAfUrArArArGfUrArGrArAfUfUfUrArAfCrArArArAfCrAfUrArGrArArGrArGfCrGrGfCfCrGfC |  |  | Binding activity as determined using Biacore (chymase [5]): higher binding activity than 40N
25 | GGGTTAGAUAGAGTUAAAAACCC (mixed, idT-G(M)G(M)G(M)ttAG(M)aU(F)A(M)GAG(M)tU(F)A(M)A(M)A(M)A(M)A(M)ccc-idT (lower case DNA)) [72(1)] |  | 13 nM | 
26 | GGGUUAGAUAGAGUUAAAAACCC (ssRNA, idT-G(M)G(M)G(M)U(F)U(F)sAsGAU(F)A(M)GAG(M)U(F)U(F)A(M)A(M)A(M)A(M)A(M)C(F)C(F)C(F)-idT (M=2'-OMe, F=2'-F, s=PS)) [56(38)] |  | 19 nM | 
